In data set [1] the test system is Mth10b I39R (Methanobacterium thermoautotrophicum ΔH). In words: SPR. The following applies: SPR (BIAcore 3000, SA chip): 20 mM Tris, 1 mM EDTA, 0.005% Tween20, pH 7.5, with 0, 0.1 or 0.3 M NaCl, 25°C.
Data set [2] concerns Mth10b N11K (Methanobacterium thermoautotrophicum ΔH). In words: SPR. The following applies: SPR (BIAcore 3000, SA chip): 20 mM Tris, 1 mM EDTA, 0.005% Tween20, pH 7.5, with 0, 0.1 or 0.3 M NaCl, 25°C. (Surface plasmon resonance follows binding to a sensor surface in real time, without labels.)
Data set [3] concerns Mth10b N11KI39RT77R (Methanobacterium thermoautotrophicum ΔH). As to the kind of experiment: SPR. To be noted: SPR (BIAcore 3000, SA chip): 20 mM Tris, 1 mM EDTA, 0.005% Tween20, pH 7.5, with 0, 0.1 or 0.3 M NaCl, 25°C.
The test system of data set [4] is Mth10b T77R (Methanobacterium thermoautotrophicum ΔH). In words: SPR. The following applies: no NaCl; apparent KD; SPR (BIAcore 3000, SA chip): 20 mM Tris, 1 mM EDTA, 0.005% Tween20, pH 7.5, with 0, 0.1 or 0.3 M NaCl, 25°C.
The target in data set [5] is T1, Mth10b N11KI39RT77R N11K;I39R;T77R (Methanobacterium thermoautotrophicum ΔH) (UniProt O27527).
T1 sequence: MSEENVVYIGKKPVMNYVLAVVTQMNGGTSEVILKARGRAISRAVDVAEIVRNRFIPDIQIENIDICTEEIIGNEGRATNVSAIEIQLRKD
As to the kind of experiment: SPR. To be noted: SPR (BIAcore 3000, SA chip): 20 mM Tris, 1 mM EDTA, 0.005% Tween20, pH 7.5, with 0, 0.1 or 0.3 M NaCl, 25°C.

Data set [6] deals with T2, Mth10b T77R T77R (Methanobacterium thermoautotrophicum ΔH) (UniProt O27527).
T2 sequence: T1 sequence with K11N, R39I
In words: SPR. The following applies: SPR (BIAcore 3000, SA chip): 20 mM Tris, 1 mM EDTA, 0.005% Tween20, pH 7.5, with 0, 0.1 or 0.3 M NaCl, 25°C.

Data set [7] has as its target T3, Mth10b wild type (Methanobacterium thermoautotrophicum ΔH) (UniProt O27527).
T3 sequence: T1 sequence with K11N, R39I, R77T
In words: SPR. To be noted: SPR (BIAcore 3000, SA chip): 20 mM Tris, 1 mM EDTA, 0.005% Tween20, pH 7.5, with 0, 0.1 or 0.3 M NaCl, 25°C.

Data set [8] concerns the molecule itself. In words: crystal structure; purified Mth10b at ~10 mg/ml in 10 mM HEPES pH 7.2, 150 mM NaCl; hanging drop at 4°C over 0.1 M NaCl, 1.6 M (NH4)2SO4, 0.1 M HEPES pH 7.5; 2.2 Å; dimer formed about a crystallographic two-fold axis.
Setting [9] is: 0.1 M NaCl, slight cooperativity.

The record followed here is PMC3325275, “Molecular Mechanism Underlying the Interaction of Typical Sac10b Family Proteins with DNA” (PLoS ONE, 2012).

Changes are numbered by the printed parent chain.

As to 110 bp mth10b fragment, the Kd in data set [1] (setting [9]) was 6.5 µM; in data set [1] (no NaCl, apparent KD) it was 0.26 µM; in data set [2] (0.1 M NaCl, marked cooperativity) it was 30 µM; in data set [2] (no NaCl, apparent KD) it was 2.1 µM; in data set [3] (setting [9]), 0.7 µM; in data set [4], 16 µM. In addition, in data set [3] (0.3 M NaCl, high cooperativity), the fold decrease in affinity (fold lower affinity than in 0.1 M NaCl) came out at 70.

Take “GTGATGTCAGAGGAGAATGTAGTATACATCGGAAACAAGCCTGTAATGAACTATGTTCTGGCCGTGGTTACTCAGATGAACGGTGGGACCAGTGAAGTGATCCTTAAAGC (double strand) [110 bp mth10b fragment]”: the values for the Kd in data set [5] and in data set [6] were 0.7 µM and 16 µM, respectively. For the same molecule, the binding entry in data set [7] is “no binding”.

B1: Mth10b from Methanobacterium thermoautotrophicum ΔH (natural protein, UniProt O27527 1-91, looked up)
chain: T1 sequence with K11N, R39I, R77T
notes: Mth10b, atypical Sac10b (Alba) family member of Methanobacterium thermoautotrophicum ΔH, gene mth10b (MTH1483); 91 residues in total, C-terminal residue Asp91; expressed from pET11a-mth10b; the structure model covers 86 of the 91 residues; also called wild type Mth10b; source: E. coli BL21 (DE3), purified
Broadly, the stoichiometry N is a count of units in the complex or per binding partner. In the case of B1, in data set [8], the “stoichiometry N” value turned out to be 2.
